B1: Protein RED1 (Saccharomyces cerevisiae), P14291 (parent)
chain: MEGLKKKIFGVCLKNDLAQTRNETKGIHYGLMTLETSKQLQEFLHLLVIKREVIQNFELLFHIINVAVKITDSNLPSDDIWHFILKLRFSSEINIDEDSKVLNYLLETGIAMENPVSWKCLAVISSILSSVPQSKKIITNLIETEHAKKIGQLFDNIQDLQQGNFLVEILSNCFKKSASNSKKVEKIPQLWQSRSKNKFFFENEFYPFSSKNGSLQTCQFLCNNFMSTLSFTGILRQVSYSGSETLKNLRIFKKKDDENSYFIQCIYNKIYLWLDEKAPLEFERKKIRITKNLKNKIQIKLRQPFHECVRTTADKTALLFNKTKGFQLEFEDEKLGETFFHNVNNIPKISEVQNFLVLDYIEEEPENEGEEEEQIGRADEQKEDEEEESLDELSTPMVYPIKSSIPHNHNEKVQLVTPDRSVSIRSDEWDLKSNTEDEEGNVLADLKISSTKETKRQTDYVHIDSEDQSPVVSAQMRKMRRESTKTLEILRQEFKDKDVQNKEDQSEQIQNPFVNTSSLVVGKSCLVNPKEKPNIDQTVVGITELKSNSSIKKRDINILDTIFGQPPSKKQKQFHKKEKKKQQKKLTNFKPIIDVPSQDKRNLRSNAPTKPKSIKVSKLRTDKKVTGEKSSPETAAEKVDDQTVRSNDEQAMSRATKEKCFPDVNEGKEITKDDAKVSLESKKNNETFVDSSVVEKHTPPDKDCNNCNITDILESTTVIDLQSPHGLSAPGQNTFTNKLQEQIYSSINHFSNELVRKISIINQELNKKILKELSEKYQKLFSELQDNFQNDTNEMLKFMGEIKDMMNLPEDQLVHAIRTRKFDNNKR
partner: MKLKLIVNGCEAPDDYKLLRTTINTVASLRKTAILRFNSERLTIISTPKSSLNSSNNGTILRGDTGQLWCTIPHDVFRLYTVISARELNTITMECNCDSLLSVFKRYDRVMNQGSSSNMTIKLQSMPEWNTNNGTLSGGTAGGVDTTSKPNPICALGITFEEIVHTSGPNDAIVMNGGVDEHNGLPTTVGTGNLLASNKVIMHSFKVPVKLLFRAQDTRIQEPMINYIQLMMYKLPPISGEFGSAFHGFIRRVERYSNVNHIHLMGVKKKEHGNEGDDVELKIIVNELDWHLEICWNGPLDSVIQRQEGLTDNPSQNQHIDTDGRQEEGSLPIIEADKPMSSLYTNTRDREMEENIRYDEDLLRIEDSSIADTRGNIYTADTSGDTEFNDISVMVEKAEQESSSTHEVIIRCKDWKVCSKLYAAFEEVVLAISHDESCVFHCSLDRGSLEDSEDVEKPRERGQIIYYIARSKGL
B2: Protein RED1 (Saccharomyces cerevisiae), P14291 (parent)
chain: B1 chain
B3: Protein RED1 (Saccharomyces cerevisiae), P14291 (parent)
chain: B1 chain
partner: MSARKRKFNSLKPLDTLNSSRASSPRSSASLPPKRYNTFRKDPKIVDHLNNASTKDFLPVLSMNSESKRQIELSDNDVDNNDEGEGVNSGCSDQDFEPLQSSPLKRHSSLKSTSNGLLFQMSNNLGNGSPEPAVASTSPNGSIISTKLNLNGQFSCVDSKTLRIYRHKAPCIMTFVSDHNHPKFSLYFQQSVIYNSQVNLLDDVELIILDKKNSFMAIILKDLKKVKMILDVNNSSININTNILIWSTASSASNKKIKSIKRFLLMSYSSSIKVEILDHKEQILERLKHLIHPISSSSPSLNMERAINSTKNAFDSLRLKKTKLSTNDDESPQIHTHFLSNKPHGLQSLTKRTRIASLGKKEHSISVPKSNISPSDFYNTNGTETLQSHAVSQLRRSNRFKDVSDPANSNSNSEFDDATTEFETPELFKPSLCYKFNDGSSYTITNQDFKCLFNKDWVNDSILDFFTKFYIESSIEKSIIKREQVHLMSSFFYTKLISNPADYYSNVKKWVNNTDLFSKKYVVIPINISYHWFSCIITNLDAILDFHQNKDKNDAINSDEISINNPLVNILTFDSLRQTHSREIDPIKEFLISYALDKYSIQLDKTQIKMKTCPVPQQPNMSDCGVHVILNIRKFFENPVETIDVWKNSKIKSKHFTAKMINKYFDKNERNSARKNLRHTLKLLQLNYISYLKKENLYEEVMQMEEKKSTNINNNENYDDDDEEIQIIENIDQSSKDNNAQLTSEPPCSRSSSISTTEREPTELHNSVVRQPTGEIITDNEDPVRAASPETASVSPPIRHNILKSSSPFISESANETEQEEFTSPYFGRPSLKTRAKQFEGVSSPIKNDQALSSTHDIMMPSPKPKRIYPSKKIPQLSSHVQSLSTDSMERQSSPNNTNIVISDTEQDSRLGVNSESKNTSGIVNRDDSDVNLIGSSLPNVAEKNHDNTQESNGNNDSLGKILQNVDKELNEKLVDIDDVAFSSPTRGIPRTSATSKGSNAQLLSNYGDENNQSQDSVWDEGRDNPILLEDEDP
B4: Protein RED1 (Saccharomyces cerevisiae), P14291 (parent)
chain: B1 chain
partner: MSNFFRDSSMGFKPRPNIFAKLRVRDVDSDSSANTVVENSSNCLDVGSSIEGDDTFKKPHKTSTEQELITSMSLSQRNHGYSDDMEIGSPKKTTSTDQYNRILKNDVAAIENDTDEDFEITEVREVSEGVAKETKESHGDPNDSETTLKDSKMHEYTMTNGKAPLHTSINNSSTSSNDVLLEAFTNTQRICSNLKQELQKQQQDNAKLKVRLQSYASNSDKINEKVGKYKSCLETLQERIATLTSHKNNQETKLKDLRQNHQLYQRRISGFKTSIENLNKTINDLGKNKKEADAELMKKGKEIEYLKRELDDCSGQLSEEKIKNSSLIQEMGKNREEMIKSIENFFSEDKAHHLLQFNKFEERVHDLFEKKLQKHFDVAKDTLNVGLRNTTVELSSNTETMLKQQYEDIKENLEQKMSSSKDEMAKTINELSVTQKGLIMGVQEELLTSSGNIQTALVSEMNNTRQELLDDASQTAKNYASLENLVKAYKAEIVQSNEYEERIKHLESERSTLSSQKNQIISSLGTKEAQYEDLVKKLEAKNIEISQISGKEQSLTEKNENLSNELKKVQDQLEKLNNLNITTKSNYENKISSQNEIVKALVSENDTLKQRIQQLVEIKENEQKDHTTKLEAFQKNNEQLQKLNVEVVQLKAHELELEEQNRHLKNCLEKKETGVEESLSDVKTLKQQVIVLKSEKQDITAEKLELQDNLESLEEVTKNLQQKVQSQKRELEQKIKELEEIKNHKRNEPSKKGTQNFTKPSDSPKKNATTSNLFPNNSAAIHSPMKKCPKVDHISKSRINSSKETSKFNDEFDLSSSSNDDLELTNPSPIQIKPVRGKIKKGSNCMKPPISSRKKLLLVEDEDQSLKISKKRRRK
B5: Protein RED1 (Saccharomyces cerevisiae), P14291 (parent)
chain: B1 chain
partner: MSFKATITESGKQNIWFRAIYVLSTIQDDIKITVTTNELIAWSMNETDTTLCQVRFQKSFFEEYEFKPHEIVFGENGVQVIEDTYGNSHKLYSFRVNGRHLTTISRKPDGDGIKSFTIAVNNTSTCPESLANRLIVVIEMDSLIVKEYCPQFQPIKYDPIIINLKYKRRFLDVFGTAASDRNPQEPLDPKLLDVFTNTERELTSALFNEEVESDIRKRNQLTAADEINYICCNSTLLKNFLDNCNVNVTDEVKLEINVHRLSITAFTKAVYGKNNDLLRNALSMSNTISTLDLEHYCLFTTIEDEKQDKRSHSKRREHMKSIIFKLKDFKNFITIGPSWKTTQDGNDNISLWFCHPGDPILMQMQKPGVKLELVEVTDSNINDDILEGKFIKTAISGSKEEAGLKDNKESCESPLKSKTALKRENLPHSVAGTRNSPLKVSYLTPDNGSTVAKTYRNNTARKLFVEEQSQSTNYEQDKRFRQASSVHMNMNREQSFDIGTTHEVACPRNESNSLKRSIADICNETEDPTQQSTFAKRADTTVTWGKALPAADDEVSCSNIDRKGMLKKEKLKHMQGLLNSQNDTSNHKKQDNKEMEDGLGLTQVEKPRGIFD

Variants of: B1
Settings: with mec3_yeast MEC3, Q02574

| effect of a mutation on the interaction | Variant |
| --- | --- |
| disrupting interaction strength | Q537A;V540A |

Variants of: B2
Settings: with smt3_yeast SMT3, Q12306
smt3_yeast SMT3, Q12306, sequence (Q12306 whole entry): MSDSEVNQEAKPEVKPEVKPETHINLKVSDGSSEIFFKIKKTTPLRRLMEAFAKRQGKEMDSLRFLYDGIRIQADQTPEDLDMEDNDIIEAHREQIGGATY

| effect of a mutation on the interaction | Variant |
| --- | --- |
| disrupting interaction strength | K569R;K570R;K572R;K576R;K577R;K579R;K580R;K581R;K584R;K585R;K590R |
| disrupting interaction strength | K569R;K570R;K572R;K576R;K577R |

Variants of: B3
Settings: with ulp2_yeast ULP2, P40537

| effect of a mutation on the interaction | Variant |
| --- | --- |
| disrupting interaction strength | K569R;K570R;K572R;K576R;K577R;K579R;K580R;K581R;K584R;K585R;K590R |

Variants of: B4
Settings: with zip1_yeast ZIP1, P31111

| effect of a mutation on the interaction | Variant |
| --- | --- |
| disrupting interaction strength | K569R;K570R;K572R;K576R;K577R;K579R;K580R;K581R;K584R;K585R;K590R |

Variants of: B5
Settings: with ddc1_yeast DDC1, Q08949

| effect of a mutation on the interaction | Variant |
| --- | --- |
| disrupting interaction strength | I743A |

From IntAct's records for PubMed 20534433
